The nature of this data set: soluble on expression in E. coli; label from the status in PepcDB or PDB records.
Regarding “MGLFQIKPDIHYGANSLDILRTLEMEKVFLVTDENMVKLKVINKVTNILKSRGIEAKVYSDVKPDPTDEEIIKGMLELSAHDPDCIIALGGGSPIDACKSMIYFTNQIKRAMGQNKKPKFIAIPTTSGTGSEVTSYAVVTTKDKKIPLSDSEMLPDIAILNPEFIKTLSPSIIADTGMDVLTHAIEAYVSKSRNLFTNTFAIGAIKTVFADLVSNFENPQLEKERINLQIASCMAGVAFSNAGLGINHSIAHSLGARFHKPHGRLNAVIMSEVIQFNARNKNAAKYYREIVEALGFSPKEDVEGVEILAKAIKMRAAKMGIPNSLSELGIPKEQYFDEMEGIIDQIENDMCTGENPRRFSRIEMKQLLTDLY”, the “soluble on expression in E. coli” value is given as “not soluble”.
Consider “MTKSLFRQSFLTDTLDVHIDVAPAEQVLSNGVQLKLYQRGVLEVIPENPTQETKNIIISCGIHGDETAPMELVDSIIKDIESGFQKVDARCLFIIAHPESTLAHTRFLEENLNRLFDEKEHEPTKELAIADTLKLLVRDFYQDTEPKTRWHLDLHCAIRGSKHYTFAVSPKTRHPVRSKALVDFLDSAHIEAVLLSNSPSSTFSWYSAENYSAQALTMELGRVARIGENALDRLTAFDLALRNLIAEAQPEHLSKPCIKYRVSRTIVRLHDDFDFMFDDNVENFTSFVHGEVFGHDGDKPLMAKNDNEAIVFPNRHVAIGQRAALMVCEVKTRFEEGELVYDLEHHHHHH”, for which the “soluble on expression in E. coli” value was “soluble”.
With “MAMQAAKRANIRLPPEVNRILMIRNLPYKITAEEMYDIFGKYGPIRQIRVGNTPETRGTAYVVYEDIFDAKNACDHLSGFNVCNRYLVVLYYNANRAFQKMDTKKKEEQLKLLKEKYGINTDPPK”, the “soluble on expression in E. coli” value is given as “soluble”.
On to “MSLRTIPLLCFNDVYRVNQKYNPQPGAPEDNSPDRTITVSQFAELLLSERSKWADRQSEDQDDQEGPSKEGLVLFAGDVFNPSVESSVTRGSHMVPIMNALKVDYACVGNHDFDFGFPHLTKLVESTSFPWLLSNIVDTNTGRQPEPLKRFIVTERCGVKIGLIGLVEKDWIATIPSWPHNFRYRSMKDTALELSRELRDPNGEHQVDIIIALTHCRVPNDIRLAIELGAVADKPGVENEHGIDLIVGGHDHIYYIGKGATSWEGYAGRKDVPGTTEDHGVRLIKSGTDFRDLTSANLTVTPTPLGSIRRQLITSLTGKHLYVLPSSPSSPPFEELVKSLLSSVSEALTKPVCFTLTPFDARSEVVRTQESGLGNWIADVLMHAYAESIVQAKGKEGGLGEEFEGDADAAILCGGTLRGDSQYGPGKISLGDILEILPFEDPVVCIELDGKGIWNALESALSKWPAQEGRFPIVSGLAVKWDHTRPPGQRILSIHQIAQPKKDDDDWEDPADMVDFKEQEDGTTVVVKQKKLQLGEEVKNEEGGRMYKVITRDYMAQGYDGFEALKNRNFIVDDENGQIMSSILRSFLLGSSYIFRHKQLEEAAHSHLSRRTSEGHHHHHH”, for which the “soluble on expression in E. coli” value was “soluble”.
Take “MGSDKIHHHHHHMDKNPLVYEYSIGKRKPYDYDYGNRQGNQNAGCPFCDVRHLVNIFEKDGDKIWLKNKYPTLQDTDQTILIESSDHQGDISTYTREDNQELMKFALKCFQKMYNSGRYKSVLWYKNFGPKSDGSLTHPHMQIVGLYHKDGYHDIGPDNFKGFEVGKSGSVEMNLSAYPVQGYQEVNIITHDNTNLGTWADLIQKGTQYVRSVLSHGVDSYNLFFYPINDGQGTCCKIIPRFYASPYFVGYKISQVDDSDTLKWEAERLKGFVNGGILH”: the “soluble on expression in E. coli” value is on record as “not soluble”.
For “MSLKPSLDELESLLIARHTPNIHNKLKKGKVAILGLGGLGSNIAISLARIGVGELLLIDYDVVEPSNLNRQQYFIDDIGKLKTDAMIENIKKINPFIKLNKRDIFLNKNNMDTIKDSDLIIEAFDDASCKAQVCNYVLINLKDKYLIASSGMAGYYDSNIITTKKIKDRFYICGDFVNEAKFGEEGHHHHHH” the value was “not soluble”; for “MRIEAHQVFNVSIQLCEFFNVDLSDRGYYQIRLRPRKTAEIGSVDISHDTEGDRDTGPKTSSNILLAHVYQGAAVSKTVEVTYQHEKFNLDDWFHISVQFNSTLNLCEPQKLEIEIELLYMDRYHPPQYESFVKITKRIVEIPLDPTRLVAAARSLYFDSTYLSAITMSVFSSLVMVATRQRKANASESASSTKSTKLRRVYNSSAHALLFATRSIQQFIVNNSRLINASVSVVVLDVQTEMKAALQQFDSSDHPTRCVETDVCEWSTKITLIYQQMLILFRKSKELNQQLLLIFDKQRRAVFREAFWINERPIDKCLIRTPVSVLEHYKSIIKVDYLRKLPRCTIFCEETDCPGEFCPIIFEDVFTRNSVGLLDLNNANRQVTIPNSASMPVVKAHEKHKSFREKLRNETRKLIHPRRKSLDCSQSLSRKLDGGVTSRSRTKTLKETTSTDGGGGLLLKNIPNSQENNFSPEFPGPSRDTATESPSCSSEPIASPSPSSEFGRCSAAGELFQDDGIPLISKESVTSEEIANALRTSVSADDVLSCRVTSSTDMKLTEEHPKDRMAEFELLREREAAKKMLRQQTNYEGHLYSEQSGRSTAGPVCTPIKSSLVIGDPVVRSKNKTHLVVFVHGLEGSQEDLVPFRCGLDQAIAAHYHCIQMEGRDFDEEPWAFEYLMSSANRSQTWADITTMAHNLLSEVREYVEEARNDIQRISFLAHSLGGVIVRSAVGLAPEVEMQWMIDRCYTLMTINSPHLGLAYVQKHIHWGVQFVKWWKKSRSMEQLSFRDSVDFASSFVYKTSLNNACGKFKNILLVGTPHDQLVPYMSSLLVPSKISSEDQSQFGEAYREMMTACLSSIQNSEKSENLVRYTTFHQLGSSNTQKITGRAAHVIALEDSVFIEKLFNISAVRYFV”, “not soluble”; for “MASEHFDMWESRFSADGYLFGTAPNAFLASCHDLLPKQGRALAIADGEGRNGVFLAECGLSVLSVDFSPTAQAKAHKLAAERGVTIETRTADLLSWQWPGGFDVIAGIFFQFVEPEQRPQIFQQIRAALKPGALLLIEGYRPKQLAYKTGGPSRAENLYTRELLEQAFGDFDNLSIRERDSEIVEGAGHAGLSALIDLIGWKPKLEHHHHHH”, “not soluble”.
Consider “MATKARVMYDFAAEPGNNELTVNEGEIITITNPDVGGGWLEGRNIKGERGLVPTDYVEILPSDGKDQFSCGNSVADQAFLDSLSASTAQASSSAASNNHQVGSGNDPWSAWSASKSGNWESSEGWGAQPEGAGAQRNTNTPNNWDTAFGHPQAYQGPATGDDDDWDEDWDGPKSSSYFKDSESADAGGAQRGNSRASSSSMKIPLNKFPGFAKPGTEQYLLAKQLAKPKEKIPIIVGDYGPMWVYPTSTFDCVVADPRKGSKMYGLKSYIEYQLTPTNTNRSVNHRYKHFDWLYERLLVKFGSAIPIPSLPDKQVTGRFEEEFIKMRMERLQAWMTRMCRHPVISESEVFQQFLNFRDEKEWKTGKRKAERDELAGVMIFSTMEPEAPDLDLVEIEQKCEAVGKFTKAMDDGVKELLTVGQEHWKRCTGPLPKEYQKIGKALQSLATVFSSSGYQGETDLNDAITEAGKTYEEIASLVAEQPKKDLHFLMECNHEYKGFLGCFPDIIGTHKGAIEKVKESDKLVATSKITLQDKQNMVKRVSIMSYALQAEMNHFHSNRIYDYNSVIRLYLEQQVQFYETIAEKLRQALSRFPVM”, for which the “soluble on expression in E. coli” value was “soluble”.
For the sequence “GMYLKELSMMPGVSGDEGKVRDFIKSKIEGLVDNLYTDVLGNLIALKRGRDSSKKLLVSAHMDEVGFVVSKIEKDGKVSFLPVGGVDPRILPGKVVQVKNLKGVIGYRPIHLQRDEENTPPRFENLRIDFGFSSADEAKKYVSIGDYVSFVSDYIEKNGRAVGKAFDDRAGCSVLIDVLESGVSPAYDTYFVFTVQEETGLRGSAVVVEQLKPTCAIVVETTTAGDNPELEERKWATHLGDGPAITFYHRGYVIPKEIFQTIVDTAKNNDIPFQMKRRTAGGTDAGRYARTAYGVPAGVISTPARYIHSPNSIIDLNDYENTKKLIKVLVEEGKIVEVVS”, the “soluble on expression in E. coli” value is listed as “soluble”.
Consider “MPPEIMRFKERLEEAMNGESSRAFAAKCGLSDGVIRNYLSGKTYPSLDRLAQIAYATGRPIEWFIQSQSMPMVEHKNNQENKNSQPDRSTLKTKLIAIVELLEDKELHSAIELFRKKGFEALMPEIFSSDDSIQADLQGISQQTLQTAKMLESLPTDTRKKILSKYGIYEQEGLVAPSQEPQDVKKAV”, for which the “soluble on expression in E. coli” value is listed as “not soluble”.

(Values after the DeepSol protein solubility set.)
